These results are taken from patent publication US20180327803A1.

The target in experiment [1] is human IgG3 antibody (#I5654; Sigma-Aldrich) (human). The experiment in a line: ELISA. Background: In an ELISA, binding on a coated surface is turned into a signal by an enzyme label.
Experiment [2] addresses human serum-derived IgA polyclonal antibody (#I4036; Sigma-Aldrich) (human). Description: ELISA.
Experiment [3] has as its target human IgG2 antibody (#I5404; Sigma-Aldrich) (human). Description: ELISA.
Experiment [4] deals with human IgG1 antibody (#I5154; Sigma-Aldrich) (human). The experiment in a line: ELISA.
In experiment [5] the target is human IgG4 antibody (#I4639; Sigma-Aldrich) (human). The experiment in a line: ELISA.
Experiment [6] concerns the target human serum-derived IgA polyclonal antibody (#I4036; Sigma-Aldrich) (human). Description: SPR, lysate, human IgA chip. On the technique in general: In SPR one partner is held on a chip, and binding of the other changes the refractive index at the surface.
Experiment [7] concerns the target human serum-derived IgG polyclonal antibody (#I4506; Sigma-Aldrich) (human). Description: scFv-immobilized HiTrap NHS column.
Experiment [8] concerns the target human IgG1 antibody (#I5154; Sigma-Aldrich) (human). The experiment in a line: SPR, single cycle kinetics, IgG1 chip.

B1: IgA R3-18 (scFv, not shown: small tags and cut ends)
scFv: QSLEESGGRLVTPGTPLTLTCTVSGIDLSSNAMTWVRQAPGEGLEWIGTISTGGSTYFASWAKGRFTISKTSTTVDLKITSPTTEDTATYFCATRYDSYGYAYNYWFGTLWGPGTLVTVTSGGGGSGGGGSGGGGSELVMTQTAASVSEPVGGTVTIKCQASQNINNELAWYQQKPGQRPKLLIYDASKLASGVPSRFSGSGSGTEFTLTISGMQCDDAATYYCQSTYYDGNYVYAFGGGTEVDVKGS
In general, koff refers to a measure of how fast the partners let go of each other. Higher therefore signals a short-lived complex. B1: the OD is 2.99 in experiment [1]; 3.03 in experiment [2]; 3.09 in experiment [3]; 3.09 in experiment [4]; 3.08 in experiment [5]. The molecule also had a koff in experiment [6] of 0.000181 s⁻¹.

B2: IgA R3-1 (scFv, not shown: small tags and cut ends)
scFv: QSVKESGGRLVTPGTPLTLTCTVSGIDLSSNAMSWVRQAPGEGLEWIGTISTVGKTYFASWAKGRFTISKTSTTVDLRITSPTTEDTATYFCATRYDSYGYAYNYWFGTLWGPGTLVTVTSGGGGSGGGGSGGGGSELDLTQTPPSVSGAVGGTVTIKCQASENINSELAWYQQKPGQRPKLLIYDASKLASGVPSRFSGSGSGTEYTLTISGMQCDDAATYYCQSTYYDGNYVYAFGGGTEVDVTRS
For B2, the OD stood at 3.02 in experiment [1]; 3 in experiment [2]; 3.07 in experiment [3]; 3.09 in experiment [4]; 3.07 in experiment [5]. This molecule yielded a koff in experiment [6] of 9.88e-05 s⁻¹.

B3: R3-26 rabbit-derived single-chain antibody-His (scFv)
scFv: QEQLVESGGGLVKPGGTLTLTCTVSGIDLSSYAMSWVRQVPGKGLEWIGIIGSGGGTAYANWAKGRFTISKTSSTTVDLKMTSLTTEDTATYFCATDYGIYGYAYGHLWGPGTLVTVTSGGGGSGGGGSGGGGSELVMTQTASPVSAAVGGTVTIKCQASQSISTALAWYQQRPGQPPKLLIYDASTLASGVSSRFKGSGSGTEFTLTISDLECADAATYYCQTYFGSDTDNAFGEGTEVEITGSHHHHHH
Broadly, the Kd is the constant that tells how readily two partners part at equilibrium. Read a low Kd as a tighter complex. Broadly, the kon is the rate constant with which the complex forms. Lower therefore signals slower complex formation. Turning to B3, in experiment [7], the amount of IgG adsorbed to the column and eluted was 5.3 mg; the percent of supplied IgG adsorbed to the column and eluted was 53%. In experiment [8], this molecule yielded a Kd of 2.1 nM, a koff of 4.3e-05 s⁻¹ and a kon of 21000 M⁻¹ s⁻¹.
